Reference: the supplement of paper PMC9112550, “Optimization of the antimicrobial peptide Bac7 by deep mutational scanning” (BMC Biology, 2022)

Test system: Escherichia coli TOP10
Assay: shrunken log2 fold change of peptide-encoding DNA abundance (4.5 h post-induction vs induction); higher = less antimicrobial activity (less host growth inhibition)
Conditions: time post-induction: 4.5 h; library: site-saturation at positions 5, 18, 19, 20
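Note: peptides expressed intracellularly from a pBAD plasmid library in pooled LB shake-flask culture, induced with 0.3% L-arabinose, DNA abundance read by NGS, three biological replicates, DESeq2 with apeglm shrinkage.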

Sequence	shrunken log2 fold change
RRIRIRPPRLPRPRPRPHPCPRP	-0.736
RRIRCRPPRLPRPRPRPEICPRP	0.0631
RRIRTRPPRLPRPRPRPTMIPRP	-0.413
RRIRNRPPRLPRPRPRPTYRPRP	-0.0805
RRIRYRPPRLPRPRPRPNPVPRP	0.000723
RRIRPRPPRLPRPRPRPHLWPRP	0.181
RRIRIRPPRLPRPRPRPPPVPRP	0.414
RRIRTRPPRLPRPRPRPSDWPRP	0.0388
RRIRPRPPRLPRPRPRPEEKPRP	-0.0155
RRIRPRPPRLPRPRPRPTQTPRP	0.147
RRIRMRPPRLPRPRPRPHAMPRP	-0.0135
RRIRPRPPRLPRPRPRPDVVPRP	-0.00973
RRIRWRPPRLPRPRPRPHSFPRP	-0.266
RRIRKRPPRLPRPRPRPCHQPRP	0.124
RRIRHRPPRLPRPRPRPAWFPRP	0.211
RRIRHRPPRLPRPRPRPPLSPRP	-0.0738
RRIRWRPPRLPRPRPRPIRVPRP	0.0983
RRIRMRPPRLPRPRPRPYNHPRP	-0.491
RRIRNRPPRLPRPRPRPLVEPRP	-0.187
RRIRNRPPRLPRPRPRPETEPRP	-0.0793
RRIRGRPPRLPRPRPRPVYQPRP	0.0322
RRIRERPPRLPRPRPRPFWIPRP	-0.165
RRIRARPPRLPRPRPRPFMYPRP	-0.225
RRIRNRPPRLPRPRPRPTEVPRP	-0.268
RRIRGRPPRLPRPRPRPIMEPRP	0.229

Sequence	shrunken log2 fold change
RRIRQRPPRLPRPRPRPHLWPRP	0.0824
RRIRHRPPRLPRPRPRPQNHPRP	-0.922
RRIRYRPPRLPRPRPRPDSRPRP	-0.0156
RRIRSRPPRLPRPRPRPFFKPRP	-0.192
RRIRTRPPRLPRPRPRPHDVPRP	0.00489
RRIRFRPPRLPRPRPRPPADPRP	0.789
RRIRWRPPRLPRPRPRPGQHPRP	-0.172
RRIRWRPPRLPRPRPRPSVLPRP	-0.225
RRIRERPPRLPRPRPRPAYGPRP	-0.108
RRIRYRPPRLPRPRPRPTHSPRP	-0.698
RRIRHRPPRLPRPRPRPKYNPRP	-0.892
RRIRARPPRLPRPRPRPFPYPRP	-0.164
RRIRDRPPRLPRPRPRPPVYPRP	-0.175
RRIRRRPPRLPRPRPRPLWDPRP	0.56
RRIRCRPPRLPRPRPRPPGQPRP	0.494
RRIRFRPPRLPRPRPRPEKHPRP	0.176
RRIRARPPRLPRPRPRPRHCPRP	-0.0733
RRIRWRPPRLPRPRPRPFFVPRP	0.173
RRIRSRPPRLPRPRPRPQMVPRP	-0.102
RRIRFRPPRLPRPRPRPDWPPRP	-0.0836
RRIRSRPPRLPRPRPRPTAEPRP	0.825
RRIRFRPPRLPRPRPRPIWLPRP	-0.17
RRIRRRPPRLPRPRPRPPHWPRP	0.932
RRIRARPPRLPRPRPRPRGNPRP	0.494
RRIRCRPPRLPRPRPRPPYHPRP	-0.334

Sequence	shrunken log2 fold change
RRIRWRPPRLPRPRPRPDIAPRP	0.0944
RRIRKRPPRLPRPRPRPKLRPRP	-0.0198
RRIRIRPPRLPRPRPRPTPLPRP	0.245
RRIRSRPPRLPRPRPRPYCHPRP	-0.532
RRIRLRPPRLPRPRPRPQSMPRP	-0.197
RRIRNRPPRLPRPRPRPWVCPRP	0.037
RRIRFRPPRLPRPRPRPMRGPRP	0.664
RRIRPRPPRLPRPRPRPIKVPRP	-0.468
RRIRERPPRLPRPRPRPIWCPRP	0.000213
RRIRRRPPRLPRPRPRPDAQPRP	0.471
RRIRKRPPRLPRPRPRPFTKPRP	-0.0833
RRIRHRPPRLPRPRPRPETDPRP	-0.253
RRIRFRPPRLPRPRPRPNPVPRP	-0.117
RRIRWRPPRLPRPRPRPRTQPRP	0.276
RRIRIRPPRLPRPRPRPDHAPRP	-0.0379
RRIRCRPPRLPRPRPRPEWDPRP	0.309
RRIRSRPPRLPRPRPRPEQSPRP	0.22
RRIRDRPPRLPRPRPRPSPNPRP	0.122
RRIRQRPPRLPRPRPRPYNCPRP	-0.92
RRIRTRPPRLPRPRPRPHPNPRP	0.0697
RRIRSRPPRLPRPRPRPYIEPRP	-0.183
RRIRRRPPRLPRPRPRPIVHPRP	-0.0757
RRIRARPPRLPRPRPRPKMRPRP	1.64
RRIRGRPPRLPRPRPRPTAPPRP	0.71
RRIRYRPPRLPRPRPRPHSSPRP	-0.207

Sequence	shrunken log2 fold change
RRIRYRPPRLPRPRPRPLITPRP	-0.749
RRIRKRPPRLPRPRPRPRGHPRP	0.189
RRIRNRPPRLPRPRPRPTPYPRP	-0.243
RRIRDRPPRLPRPRPRPQMHPRP	0.156
RRIRPRPPRLPRPRPRPDEAPRP	-0.152
RRIRIRPPRLPRPRPRPDKKPRP	-0.0638
RRIRDRPPRLPRPRPRPPEDPRP	0.402
RRIRYRPPRLPRPRPRPPEVPRP	-0.142
RRIRFRPPRLPRPRPRPVHDPRP	0.0232
RRIRSRPPRLPRPRPRPYEQPRP	-0.0601
RRIRERPPRLPRPRPRPPHRPRP	0.0387
RRIRWRPPRLPRPRPRPCQAPRP	0.201
RRIRYRPPRLPRPRPRPGNIPRP	-0.153
RRIRVRPPRLPRPRPRPNKPPRP	-0.0479
RRIRKRPPRLPRPRPRPYEQPRP	-0.0536
RRIRKRPPRLPRPRPRPKELPRP	0.566
RRIRSRPPRLPRPRPRPMVMPRP	0.0113
RRIRKRPPRLPRPRPRPYHTPRP	-0.673
RRIRTRPPRLPRPRPRPGNNPRP	-0.14
RRIRWRPPRLPRPRPRPCLMPRP	-0.225
RRIRKRPPRLPRPRPRPKCKPRP	0.545
RRIRLRPPRLPRPRPRPDPGPRP	-0.146
RRIRRRPPRLPRPRPRPITNPRP	-0.19
RRIRMRPPRLPRPRPRPQPMPRP	0.838
RRIRGRPPRLPRPRPRPQWTPRP	0.319

Sequence	shrunken log2 fold change
RRIRCRPPRLPRPRPRPAYTPRP	-0.305
RRIRHRPPRLPRPRPRPKWLPRP	0.333
RRIRFRPPRLPRPRPRPPKGPRP	-0.0971
RRIRERPPRLPRPRPRPVMQPRP	0.095
RRIRNRPPRLPRPRPRPLVAPRP	-0.124
RRIRTRPPRLPRPRPRPNSEPRP	0.0485
RRIRKRPPRLPRPRPRPFRKPRP	-0.304
RRIRVRPPRLPRPRPRPRLHPRP	0.0296
RRIRYRPPRLPRPRPRPHRGPRP	-0.192
RRIRNRPPRLPRPRPRPCPRPRP	-0.0673
RRIRARPPRLPRPRPRPVEFPRP	0.108
RRIRCRPPRLPRPRPRPFNMPRP	-0.052
RRIRKRPPRLPRPRPRPYNSPRP	-0.49
RRIRPRPPRLPRPRPRPCEHPRP	0.099
RRIRVRPPRLPRPRPRPRDSPRP	-0.188
RRIRHRPPRLPRPRPRPGTTPRP	-0.221
RRIRGRPPRLPRPRPRPTPIPRP	0.79
RRIRDRPPRLPRPRPRPGMTPRP	0.0654
RRIRARPPRLPRPRPRPCILPRP	-1.06
RRIRNRPPRLPRPRPRPYCDPRP	-0.0156
RRIRMRPPRLPRPRPRPLWGPRP	0.119
RRIRGRPPRLPRPRPRPSQMPRP	0.0878
RRIRYRPPRLPRPRPRPMLAPRP	-0.269
RRIRYRPPRLPRPRPRPPQYPRP	-0.795
RRIRRRPPRLPRPRPRPVRSPRP	0.551

Sequence	shrunken log2 fold change
RRIRMRPPRLPRPRPRPDSSPRP	0.0874
RRIRNRPPRLPRPRPRPHHSPRP	0.0657
RRIRCRPPRLPRPRPRPGNAPRP	0.185
RRIRLRPPRLPRPRPRPWVKPRP	-0.0122
RRIRRRPPRLPRPRPRPCYTPRP	-0.112
RRIRMRPPRLPRPRPRPKWYPRP	-0.171
RRIRTRPPRLPRPRPRPKLHPRP	-0.101
RRIRVRPPRLPRPRPRPYVHPRP	-0.104
RRIRCRPPRLPRPRPRPCSLPRP	-0.477
RRIRIRPPRLPRPRPRPCHTPRP	-0.0495
RRIRDRPPRLPRPRPRPMTTPRP	-0.0624
RRIRYRPPRLPRPRPRPHGLPRP	0.0126
RRIRVRPPRLPRPRPRPEREPRP	0.586
RRIRSRPPRLPRPRPRPYIRPRP	-0.0533
RRIRKRPPRLPRPRPRPAKNPRP	0.487
RRIRERPPRLPRPRPRPTLPPRP	0.123
RRIRCRPPRLPRPRPRPGAQPRP	0.312
RRIRVRPPRLPRPRPRPNNVPRP	-0.117
RRIRFRPPRLPRPRPRPDGSPRP	-0.0167
RRIRYRPPRLPRPRPRPACIPRP	-0.389
RRIRPRPPRLPRPRPRPIPQPRP	-0.321
RRIRLRPPRLPRPRPRPTWDPRP	0.183
RRIRHRPPRLPRPRPRPDNQPRP	-0.0673
RRIRFRPPRLPRPRPRPSSKPRP	-0.32
RRIRMRPPRLPRPRPRPYNPPRP	-0.21
